Results published in a protein production outcome set (Wang et al. 2014).

test: label from the status in PepcDB records

Sequence	protein production
MVVKMIEKYVEFIGEHELDAIFKIAEKIKDLSILHVNSTKAGGGVAEILNRMLPLMKELGLNVDWKVIKGDNEFFNVTKSFHNSLQNGTGNIPDEYFKIYDKWQEINLSEIPLDYDIMFIHDPQPAGLIKFKKGNSNKWIWRCHIDISNPYPPVWNFLRKYISKYDSMIISVPSFGRDDIEIPQFVIPPSIDPLSIKNRDMSETTILRILYKFGINLEKPLITQVSRFDYAKDPLGVIQAYKLAKRHVDIQLLYVGSPATDDPEGEKVYSEVVKASEGDKDIHLLMLPPYSDLEINVFQTASTVVMQKSIKEGFGLTVSEAMWKRKPVIGGNTGGIPLQVINGITGFLVNSPQGASHYIIYLIRNEEIRRRLGTNAREHIRRNFLITRELRDYLMTIVYVANRGLASLNSHESISNHLEHHHHHH	failed
MVVMIKLRDELGTATTDSAQKILLLGSGELGKEIAIEAQRLGVEVVAVDRYANAPAMQVAHRSYVGNMMDKDFLWSVVEREKPDAIIPEIEAINLDALFEFEKDGYFVVPNARATWIAMHRERLRETLVKEAKVPTSRYMYATTLDELYEACEKIGYPCHTKAIMSSSGKGSYFVKGPEDIPKAWEEAKTKARGSAEKIIVEEHIDFDVEVTELAVRHFDENGEIVTTFPKPVGHYQIDGDYHASWQPAEISEKAEREVYRIAKRITDVLGGLGIFGVEMFVKGDKVWANEVSPRPHDTGMVTLASHPPGFSEFALHLRAVLGLPIPGEWVDGYRLFPMLIPAATHVIKAKVSGYSPRFRGLVKALSVPNATVRLFGKPEAYVGRRLGIALAWDKDVEVAKRKAEMVAHMIELRTRSSDWHDQNYEKRKHLLR	not failed
MVVMSKVLLNIGCADVDKPGYINVDARKTKVTHLVSNAWDLDCFEENSVHEIYSRHMLEHLNPEYAKLALQKWFYILEPEGKLVVIVPDIEFHARQLLGVSRSSFGDQMEHAFAGFWGWREKERGGSDFDAHQWGYTVATLENEIGAVGFERIERVVEGVDSEPWHLQMTARKPMTSLCCPMDFRGPFPLEHHHHHH	not failed
MVVNESMYQLGSVRSAIRELFEYGKKRAAIVGKENVYDFSIGNPSIPAPQIVNDTIKELVTDYDSVALHGYTSAQGDVETRAAIAEFLNNTHGTHFNADNLYMTMGAAASLSICFRALTSDAYDEFITIAPYFPEYKVFVNAAGARLVEVPADTEHFQIDFDALEERINAHTRGVIINSPNNPSGTVYSEETIKKLSDLLEKKSKEIGRPIFIIADEPYREIVYDGIKVPFVTKYYDNTLVCYSYSKSLSLPGERIGYVLVPDEVYDKAELYAAVCGAGRALGYVCAPSLFQKMIVKCQGATGDINAYKENRDLLYEGLTRIGYHCFKPDGAFYMFVKALEDDSNAFCEKAKEEDVLIVAADGFGCPGWVRISYCVDREMIKHSMPAFEKIYKKYNK	not failed
MVVRTWRSMQERYNLIGSKCKTCGTVYFPARSVCPECRRKGELEDYKLNGKGKVYTYSVVYAAPKDFEKQSPYVIGIVELEEGTKITSQIDCEPEEVKIGMPVEATFRKIREDGCDGVISYGYKFVPTEQLEHHHHHH	failed
MVVSIGVFDGVHIGHQKVLRTMKEIAFFRKDDSLIYTISYPPEYFLPDFPGLLMTVESRVEMLSRYARTVVLDFFRIKDLTPEGFVERYLSGVSAVVVGRDFRFGKNASGNASFLRKKGVEVYEIEDVVVQGKRVSSSLIRNLVQEGRVEEIPAYLGRYFEIEGIVHKDREFGRKLGFPTANIDRGNEKLVDLKRGVYLVRVHLPDGKKKFGVMNVGFRPTVGDARNVKYEVYILDFEGDLYGQRLKLEVLKFMRDEKKFDSIEELKAAIDQDVKSARNMIDDIINSKFEKEG	not failed
MVWWWRALGPSGEGQPGPLPSSLFPVIDPSRPTMQDIECLGVYTSGGDAPGMNACLRAVVRTAIANDIAVMGIRRGYEGMIEADFVEMERRSVSNILQSGGTILKSARSEAFRTEEGRRAAANSLRENGIDALVAIGGDGTFRGASKLYDEHGLGVVGCPGTIDNDLYGTDQTIGYDTALNTAIDNIDRIRDTADAHNRLFLVEVMGRDAGFIALNSGIGGGAELILIPETITEMDMVKERILSLMTAQRRSTIVVVAEGDELGGAQGIERALRDDAAFSDIELRSTILGHTQRGGAPTASDRVLASRLGVAAVESLMDGHSDVMVGMTNNEIKLTPLRNVYGRRKSIDYDLLKLTQILS	failed
MVYRDDYFIRHSISVSAVIVRAWITHKYSGRDWNVKWEENLLHAVAKNYTLLQTIPPFERPFKDHQVCLEWNMGYIWNLRANRIPQCPLENDVVALLGFPYASSGENTGIVKKFPRFRNRELEATRRQRMDYPVFTVSLWLYLLHYCKANLCGILYFVDSNEMYGTPSVFLTEEGYLHIQMHLVKGEDLAVKTKFIIPLKEWFRLDISFNGGQIVVTTSIGQDLKSYHNQTISFREDFHYNDTAGYFIIGGSRYVAGIEGFFGPLKYYRLRSLHPAQIFNPLLEKQLAEQIKLYYERCAEVQEIVSVYASAAKHGGERQEACHLHNSYLDLQRRYGRPSMCRAFPWEKELKDKHPSLFQALLEMDLLTVPRNQNESVSEIGGKIFEKAVKRLSSIDGLHQISSIVPFLTDSSCCGYHKASYYLAVFYETGLNVPRDQLQGMLYSLVGGQGSERLSSMNLGYKHYQGIDNYPLDWELSYAYYSNIATKTPLDQHTLQGDQAYVETIRLKDDEILKVQTKEDGDVFMWLKHEATRGNAAAQQRLAQMLFWGQQGVAKNPEAAIEWYAKGALETEDPALIYDYAIVLFKGQGVKKNRRLALELMKKAASKGLHQAVNGLGWYYHKFKKNYAKAAKYWLKAEEMGNPDASYNLGVLHLDGIFPGVPGRNQTLAGEIFHKAAQGGHMEGTLWCSLYYITGNLETFPRDPEKAVVWAKHVAEKNGYLGHVIRKGLNAYLEGSWHEALLYYVLAAETGIEVSQTNLAHICEERPDLARRYLGVNCVWRYYNFSVFQIDAPSFAYLKMGDLYYYGHQNQSQDLELSVQMYAQAALDGDSQGFFNLALLIEEGTIIPHHILDFLEIDSTLHSNNISILQELYERCWSHSNEESFSPCSLAWLYLHLRLLWGAILHSALIYFLGTFLLSILIAWTVQYFQSVSASDPPPRPSQASPDTATSTASPAVTPAADASDQDQPTVTNNPEPRG	failed
MWESKFVKEGLTFDDVLLVPAKSDVLPREVSVKTVLSESLQLNIPLISAGMDTVTEADMAIAMARQGGLGIIHKNMSIEQQAEQVDKVKRSESGVISDPFFLTPEHQVYDAEHLMGKYRISGVPVVNNLDERKLVGIITNRDMRFIQDYSIKISDVMTKEQLITAPVGTTLSEAEKILQKYKIEKLPLVDNNGVLQGLITIKDIEKVIEFPNSAKDKQGRLLVGAAVGVTADAMTRIDALVKASVDAIVLDTAHGHSQGVIDKVKEVRAKYPSLNIIAGNVATAEATKALIEAGANVVKVGIGPGSICTTRVVAGVGVPQLTAVYDCATEARKHGIPVIADGGIKYSGDMVKALAAGAHVVMLGSMFAGVAESPGETEIYQGRQFKVYRGMGSVGAMEKGSKDRYFQEGNKKLVPEGIEGRVPYKGPLADTVHQLVGGLRAGMGYCGAQDLEFLRENAQFIRMSGAGLLESHPHHVQITKEAPNYSL	not failed
MWFQNYLLAKFMMNRKGLMANYRVWRRRWFYPLISVVVAVSLCLGTPLVGRAIDLRPLLLQGVQVLQLSNISDRQEVDLGNQMNQQLRSSEVKISRNAEITRYVDQIGQRLVANSDRPNLPFTFQVVENDAVNAFATLGGFVYIHTGLLKTADNEAELASVIAHEIGHIGGRHLVKQMRQRALASGLASATGLDRNTAVGLGVELALNRPRSRQDEFDADTRGLRTLTRAGYAPSAMVSFMQKLTKGGGSVPAFLSTHPATGDRITSLRRAINSQGSNGRDGLDNAAYRARIRSIL	failed
MWKAVMNAWNGTESQSKNVSNIQSYSFEDMKRIVGKHDPNVVLVDVREPSEYSIVHIPASINVPYRSHPDAFALDPLEFEKQIGIPKPDSAKELIFYCASGKRGGEAQKVASSHGYSNTSLYPGSMNDWVSHGGDKLDL	not failed
MWKTASDKGLGHLLRDVWSLLNEEERELLDKEIQPFPCKKASTVFSEGDIPNNLFYLYEGKIKILREGVYGRFHISRIVKPGQFFGMRPYFAEETCSSTAIAVENSKVLAIPVEAIEALLKGNTSFCRYFLKALAKELGYAERRTVTLTQKHVRGRLAETLLILKENFGFENDGATLSIYLSREELATLSNMTVSNAIRTLSTFVSERMLALDGKRIKIIDCDRLQKTARSG	not failed
MWLGYMNKSIPTTRKTRTFKAMSIEFSAPAKMKIEVWSDIMCPFCYIGKKRLDDALSTFDQAGRIEVEYKSFELMPGLETHPLRSDVEYLADAKGMSLEQARQMNGQVQAMAQATGLEMNPDETIAANTINAHRLTHFAKAHGKQQEVAQELFKAHFVDGKNVDDLDVLVSIAAEVGLDASAAREALESDVYTNEVQQDVHEARQLGVQGVPFFVFDRKYAINGAQQEEVFTGTVEKAFEEWAAENPVSPFEVIDGQSCSVDGTCN	not failed
MWPASRCASDSSLQCGRPNDRIPMSDIAVLINTAVAVLAAVLLIVRFRVNPVISLILASVYLGLAVGLGVEKTVKTITGGFGEIMVDVGLLIAFGVLMGSILNQSGAIRRLVEHLLKTFGPKRLPYTMGLAIGTVLQSIFLDVLLVISAPLARKLAPKIGKLGTARMATAMAIALECGIVFTVPGVASLALAGLLNVPLGKMLLFGLLLVIPTIIISIAIMTFLFRRGFWNEAKDEDHTFVAEEDSEGEEPTDGGAATVPPTANSERGTAASSAQPAGGSVAVVERERKEAPLILLFAPLLTSLLLIGAGAILEILEISMPWLQLLGEPVIALLIGLIGTCLVTRAAIGQKKVEEAIAVGFKESGQILILTGVGGSLAATVAAAGLGDILGGFFSASTVAPLLVVWAIAAVLHIAVGSVTLSAITAAGLLAPIAPAIGLDPVLLALAAGAGSLFMVHVTSNTFWLLQSLLGQSVRGALKSVTVGVSVASVVAILLILPMSLLF	failed
MWRVRCKAKGGTHLLQGLSSRTRLRELQGQIAAITGIAPGSQRILVGYPPECLDLSDRDITLGDLPIQSGDMLIVEEDQTRPKASP	not failed
MWRYRSPEMPLTESFLDLMLIPIIGFGLAVILLIGFFLLYQEVGIFKNLKFLVIRKNNPFFILALFCLITGLALGLVGYWGILEPKLGAADLQALRRNLIILSLLLFGVTFRQYLFDLIKPVTTMAIWRKIGTFNYKNRIAILTYVLLGLIALAWMAPMASTKIIFSINDHTSHIGYIVQGRMALEEGQFPLRVAPLENFGFRYPGFQFYSQLPYFFGAIIYKFLTPTNPYTAYKILLWSALWLGGIFIYRVGFFFTRSQIAAILGGVTYMSAPYFLNNVHARGAFTEAIAQGILAIVLFYAIQTFYYPHYRHLILGALAWCALGLTHIITFVYTTIFIALLGAIFLVKNKPNHWQKGITYISLSYIWAWLLALYFLAPVALESGSLAIRRQIQAINPFNTTDITPIANLLAPNSLPHQPTELGIAPTYGFHPAVGWILLAGFGTVIYFVFAGKSLPRRLWRSQPWLIPLLSVFILALFLTWSPVNIWNLLPRQLWVTQFTFRFLTHVMWSGALLTTLAIILIFRERLRSRHLILGILIIVIASRPWLPIPRGTVTVEELLQDPLFRYSGALDYLYRLPNKAVPVNTKAQSAVEKIYGKAELQLLHPDWIPGYLSWDVFINGPLPIDVDIPYPAWPETEKPTLVLQGRVPMDKIKSQANLIVFVDQQPLTSIPLTQEELKVKVPFTDVKFAGNAFELKFIVEGETTDGNPLYIRMNHLYFDDFSAANTLLPVHATKEMCNQKGVVTNCPVEMPAEAGTVQLPILYYPAMQQVVVDNQPVKGFFTNYRDFNLLSLNLSPGKHQIQVKFTGLIWANFISLLAWLTLIITAIALKFYPRKPEQTIFK	failed
MWTDAGGQVHEAASGDVRIASLVPSITELLFDLGLADQLVARTGFCIHPEPAVRAVAKVGGTKDVKLDRLRALAPTHVVVNIDENRRETVDEIRTFVPHVIVTHPCAPEDNLALYRLLGGIFGRRPQAEALVGQLRGELDAIQAQTWPARRVLYAIWQDPWMTVSRATYISRMLALVNWATWPDDADTSDTPAACVDGDCSRPNAPGERYPTFRWSDALVRELDAVLLSTEPYRFTEDHADALERQIGKPVLLVDGEMLSWYGSRAVAGARYLRSLAQGFLEHHHHHH	not failed
